Target: luminGAVPO (luminescent GAVPO), Nluc-GAVPO fusion with NG configuration

“luminGAVPO (luminescent GAVPO), Nluc-GAVPO fusion with NG configuration” gave an induction ratio of a Gluc reporter driven by Gal4 binding sites, HEK293 cells, furimazine alone 0-25 uM, maximum at 2.5 uM of 116 fold.

— PMC7840992
